From patent publication US20200208174

Experiments:
[1] = biological target: CD38 TALEN Left (artificial) (UniProt Q56830); experiment: cell_activity; settings: paired with CD38 TALEN Right; simultaneous electroporation with TRAC and CD52 TALEN
[2] = biological target: CD38 TALEN Right (artificial) (UniProt Q56830); experiment: cell_activity; settings: paired with CD38 TALEN Left; simultaneous electroporation with TRAC and CD52 TALEN

Substance: CD38 left half-site
- activity (% CD38-negative cells) [1]: 66.1

Substance: CD38 right half-site
- activity (% CD38-negative cells) [2]: 66.1
